Results taken from patent US20140378663A1.
Values belong to the substance of their own block, whether it stands above or below them.

Key:
[1] = molecular target: Recombinant soluble human FcRn (human) (UniProt P55899); test: SPR, FcRn immobilised, pH 6.0; reference R593
[2] = molecular target: RhD antigen on RhD+ red blood cells (UniProt Q02161); test: flow cytometry on RhD+ red blood cells
Fcγ receptors = test: cell-based or functional assay
[3] = molecular target: FcRn-p3 (fusion protein of β2 microglobulin chain and FcRn α-chain fused to bacteriophage protein p3 and CVDE protein) (UniProt P61769); test: ELISA, purified IgG from YB2/0, vs R593 IgG-WT
[4] = molecular target: FcγRI (R&D system) (human) (UniProt P12314); test: ELISA, purified IgG from YB2/0, vs R593 IgG-WT
Sequence of FcγRI (R&D system) (human) (P12314 16-288 limits assumed): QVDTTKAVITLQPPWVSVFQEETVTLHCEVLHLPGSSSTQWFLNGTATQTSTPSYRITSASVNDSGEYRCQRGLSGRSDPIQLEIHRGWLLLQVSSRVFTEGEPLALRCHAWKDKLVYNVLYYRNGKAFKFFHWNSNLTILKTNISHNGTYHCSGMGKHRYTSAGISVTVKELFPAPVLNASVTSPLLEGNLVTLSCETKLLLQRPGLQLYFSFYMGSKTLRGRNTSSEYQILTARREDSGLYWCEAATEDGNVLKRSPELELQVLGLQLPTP

[5] = molecular target: FcγRIIIaV158 (R&D system) (human) (UniProt P08637); test: ELISA, purified IgG from YB2/0, vs R593 IgG-WT
Sequence of FcγRIIIaV158 (R&D system) (human) (P08637 17-208 F176V limits assumed): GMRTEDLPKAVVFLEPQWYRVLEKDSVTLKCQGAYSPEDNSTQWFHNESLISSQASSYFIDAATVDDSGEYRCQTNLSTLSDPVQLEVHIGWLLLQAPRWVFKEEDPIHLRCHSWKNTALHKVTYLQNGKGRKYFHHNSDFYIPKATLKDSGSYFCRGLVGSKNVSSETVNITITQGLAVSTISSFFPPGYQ

[6] = molecular target: FcγRIIaH131 (PX Therapeutics, His-tagged) (human) (UniProt P12318); test: ELISA, purified IgG from YB2/0, vs R593 IgG-WT
Sequence of FcγRIIaH131 (PX Therapeutics, His-tagged) (human) (P12318 34-217 limits assumed): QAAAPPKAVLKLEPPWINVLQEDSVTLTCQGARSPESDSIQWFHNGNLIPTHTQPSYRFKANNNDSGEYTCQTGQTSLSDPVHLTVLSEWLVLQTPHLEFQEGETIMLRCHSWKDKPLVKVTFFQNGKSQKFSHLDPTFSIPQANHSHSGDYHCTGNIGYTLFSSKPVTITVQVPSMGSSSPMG

[7] = molecular target: FcγRIIb (R&D system) (human) (UniProt P31994); test: ELISA, purified IgG from YB2/0, vs R593 IgG-WT
Sequence of FcγRIIb (R&D system) (human) (P31994 46-217 limits assumed): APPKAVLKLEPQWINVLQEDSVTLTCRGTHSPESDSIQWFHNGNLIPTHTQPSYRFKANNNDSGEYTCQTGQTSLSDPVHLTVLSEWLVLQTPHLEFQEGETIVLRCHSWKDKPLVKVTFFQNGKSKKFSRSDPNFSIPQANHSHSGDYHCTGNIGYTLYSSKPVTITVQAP

[8] = molecular target: FcγRIIIaF158 (PX Therapeutics, His-tagged) (human) (UniProt P08637); test: ELISA, purified IgG from YB2/0, vs R593 IgG-WT
Sequence of FcγRIIIaF158 (PX Therapeutics, His-tagged) (human) (P08637 17-208 limits assumed): as the sequence (P08637 17-208 F176V limits assumed) above, with V160F counted along it

[9] = molecular target: FcγRIIaR131 (R&D system) (human) (UniProt P12318); test: ELISA, purified IgG from YB2/0, vs R593 IgG-WT
Sequence of FcγRIIaR131 (R&D system) (human) (P12318 36-218 H167R limits assumed): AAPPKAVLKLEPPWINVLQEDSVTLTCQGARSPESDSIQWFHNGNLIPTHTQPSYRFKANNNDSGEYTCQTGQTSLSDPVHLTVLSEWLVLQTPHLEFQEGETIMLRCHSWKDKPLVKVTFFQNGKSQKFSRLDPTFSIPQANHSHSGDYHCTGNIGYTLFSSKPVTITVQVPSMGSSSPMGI

[10] = molecular target: Recombinant soluble human FcRn (human) (UniProt P55899); test: SPR (BIAcore X100), FcRn immobilised, pH 6.0
[11] = molecular target: FcRn-p3 (fusion protein of β2 microglobulin chain and FcRn α-chain fused to bacteriophage protein p3 and CVDE protein) (UniProt P61769); test: ELISA, purified IgG from YB2/0, vs parent R593-256N/378V/383N/434Y
[12] = molecular target: FcγRI (R&D system) (human) (UniProt P12314); test: as above
[13] = molecular target: FcγRIIIaV158 (R&D system) (human) (UniProt P08637); test: as above
[14] = molecular target: FcγRIIaH131 (PX Therapeutics, His-tagged) (human) (UniProt P12318); test: as above
[15] = molecular target: FcγRIIb (R&D system) (human) (UniProt P31994); test: as above
[16] = molecular target: FcγRIIIaF158 (PX Therapeutics, His-tagged) (human) (UniProt P08637); test: as above
[17] = molecular target: FcγRIIaR131 (R&D system) (human) (UniProt P12318); test: as above
[18] = molecular target: FcRn-p3 (fusion protein of β2 microglobulin chain and FcRn α-chain fused to bacteriophage protein p3 and CVDE protein) (UniProt P61769); test: ELISA, purified IgG from YB2/0, vs parent R593-259I/315D/434Y
[19] = molecular target: FcγRI (R&D system) (human) (UniProt P12314); test: as above
[20] = molecular target: FcγRIIIaV158 (R&D system) (human) (UniProt P08637); test: as above
[21] = molecular target: FcγRIIaH131 (PX Therapeutics, His-tagged) (human) (UniProt P12318); test: as above
[22] = molecular target: FcγRIIb (R&D system) (human) (UniProt P31994); test: as above
[23] = molecular target: FcγRIIIaF158 (PX Therapeutics, His-tagged) (human) (UniProt P08637); test: as above
[24] = molecular target: FcγRIIaR131 (R&D system) (human) (UniProt P12318); test: as above
[25] = molecular target: FcRn-p3 (fusion protein of β2 microglobulin chain and FcRn α-chain fused to bacteriophage protein p3 and CVDE protein) (UniProt P61769); test: ELISA, 293-F supernatant, vs R603 IgG-WT
[26] = molecular target: FcγRI (R&D system) (human) (UniProt P12314); test: ELISA, 293-F supernatant, vs R603 IgG-WT
[27] = molecular target: FcγRIIIaV158 (R&D system) (human) (UniProt P08637); test: ELISA, 293-F supernatant, vs R603 IgG-WT
[28] = molecular target: FcγRIIb (R&D system) (human) (UniProt P31994); test: ELISA, 293-F supernatant, vs R603 IgG-WT
[29] = molecular target: C1q complement (Calbiochem) (UniProt P02745); test: ELISA, 293-F supernatant, vs R603 IgG-WT
Sequence of C1q complement (Calbiochem) (P02745 23-245, chain 1 of 3): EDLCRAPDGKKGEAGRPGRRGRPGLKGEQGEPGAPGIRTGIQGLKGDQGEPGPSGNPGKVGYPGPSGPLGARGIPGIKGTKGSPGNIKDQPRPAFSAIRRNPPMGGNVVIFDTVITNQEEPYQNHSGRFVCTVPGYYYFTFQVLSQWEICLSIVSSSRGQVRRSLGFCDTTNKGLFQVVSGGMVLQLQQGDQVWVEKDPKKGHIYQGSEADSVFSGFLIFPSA
Sequence of C1q complement (Calbiochem) (P02746 28-253, chain 2 of 3, further chain): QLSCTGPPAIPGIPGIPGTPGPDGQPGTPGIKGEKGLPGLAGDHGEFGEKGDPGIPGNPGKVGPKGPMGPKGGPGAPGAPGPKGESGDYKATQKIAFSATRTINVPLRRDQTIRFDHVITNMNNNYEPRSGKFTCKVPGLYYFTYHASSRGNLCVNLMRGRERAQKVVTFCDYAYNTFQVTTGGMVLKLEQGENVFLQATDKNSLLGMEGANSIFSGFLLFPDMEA
Sequence of C1q complement (Calbiochem) (P02747 29-245, chain 3 of 3, further chain): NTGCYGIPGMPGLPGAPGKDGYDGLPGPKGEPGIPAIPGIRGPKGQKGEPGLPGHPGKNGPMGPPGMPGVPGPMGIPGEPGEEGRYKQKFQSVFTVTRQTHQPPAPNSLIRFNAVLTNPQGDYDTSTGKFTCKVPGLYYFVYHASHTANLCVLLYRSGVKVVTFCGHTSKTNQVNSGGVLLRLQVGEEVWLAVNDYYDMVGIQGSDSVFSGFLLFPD

[30] = molecular target: FcγRIIaR131 (R&D system) (human) (UniProt P12318); test: ELISA, 293-F supernatant, vs R603 IgG-WT
[31] = molecular target: Recombinant soluble human FcRn (human) (UniProt P55899); test: SPR, FcRn immobilised, pH 6.0; reference R603
[32] = molecular target: FcRn-p3 (fusion protein of β2 microglobulin chain and FcRn α-chain fused to bacteriophage protein p3 and CVDE protein) (UniProt P61769); test: ELISA, 293-F supernatant, vs parent 259I/315D/434Y
[33] = molecular target: FcγRI (R&D system) (human) (UniProt P12314); test: ELISA, 293-F supernatant, vs parent 259I/315D/434Y
[34] = molecular target: FcγRIIIaV158 (R&D system) (human) (UniProt P08637); test: ELISA, 293-F supernatant, vs parent 259I/315D/434Y
[35] = molecular target: FcγRIIb (R&D system) (human) (UniProt P31994); test: ELISA, 293-F supernatant, vs parent 259I/315D/434Y
[36] = molecular target: C1q complement (Calbiochem) (UniProt P02745); test: ELISA, 293-F supernatant, vs parent 259I/315D/434Y
[37] = molecular target: FcγRIIaR131 (R&D system) (human) (UniProt P12318); test: ELISA, 293-F supernatant, vs parent 259I/315D/434Y
[38] = molecular target: FcRn-p3 (fusion protein of β2 microglobulin chain and FcRn α-chain fused to bacteriophage protein p3 and CVDE protein) (UniProt P61769); test: ELISA, purified IgG from YB2/0, vs parent R603-259I/315D/434Y
[39] = molecular target: FcγRI (R&D system) (human) (UniProt P12314); test: as above
[40] = molecular target: FcγRIIIaV158 (R&D system) (human) (UniProt P08637); test: as above
[41] = molecular target: FcγRIIaH131 (PX Therapeutics, His-tagged) (human) (UniProt P12318); test: as above
[42] = molecular target: FcγRIIb (R&D system) (human) (UniProt P31994); test: as above
[43] = molecular target: FcγRIIIaF158 (PX Therapeutics, His-tagged) (human) (UniProt P08637); test: as above
[44] = molecular target: FcγRIIaR131 (R&D system) (human) (UniProt P12318); test: as above
[45] = molecular target: T1, CD20 antigen on Raji lymphoblastoid B cells (UniProt P11836); test: flow cytometry on Raji cells
T1 sequence (looked up): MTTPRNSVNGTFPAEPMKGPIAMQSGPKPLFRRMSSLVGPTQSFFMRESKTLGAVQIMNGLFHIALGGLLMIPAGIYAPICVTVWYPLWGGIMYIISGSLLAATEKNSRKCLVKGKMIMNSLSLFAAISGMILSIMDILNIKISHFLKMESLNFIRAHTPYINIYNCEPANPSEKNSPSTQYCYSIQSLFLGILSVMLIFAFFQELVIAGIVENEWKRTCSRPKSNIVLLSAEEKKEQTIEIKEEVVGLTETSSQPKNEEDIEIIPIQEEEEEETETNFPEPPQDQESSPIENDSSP

[46] = molecular target: FcRn-p3 (fusion protein of β2 microglobulin chain and FcRn α-chain fused to bacteriophage protein p3 and CVDE protein) (UniProt P61769); test: ELISA, purified IgG from YB2/0, vs R603 IgG-WT
[47] = molecular target: FcγRI (R&D system) (human) (UniProt P12314); test: ELISA, purified IgG from YB2/0, vs R603 IgG-WT
[48] = molecular target: FcγRIIIaV158 (R&D system) (human) (UniProt P08637); test: ELISA, purified IgG from YB2/0, vs R603 IgG-WT
[49] = molecular target: FcγRIIaH131 (PX Therapeutics, His-tagged) (human) (UniProt P12318); test: ELISA, purified IgG from YB2/0, vs R603 IgG-WT
[50] = molecular target: FcγRIIb (R&D system) (human) (UniProt P31994); test: ELISA, purified IgG from YB2/0, vs R603 IgG-WT
[51] = molecular target: FcγRIIIaF158 (PX Therapeutics, His-tagged) (human) (UniProt P08637); test: ELISA, purified IgG from YB2/0, vs R603 IgG-WT
[52] = molecular target: FcγRIIaR131 (R&D system) (human) (UniProt P12318); test: ELISA, purified IgG from YB2/0, vs R603 IgG-WT

Sequence of RhD antigen on RhD+ red blood cells (Q02161 2-417 limits assumed): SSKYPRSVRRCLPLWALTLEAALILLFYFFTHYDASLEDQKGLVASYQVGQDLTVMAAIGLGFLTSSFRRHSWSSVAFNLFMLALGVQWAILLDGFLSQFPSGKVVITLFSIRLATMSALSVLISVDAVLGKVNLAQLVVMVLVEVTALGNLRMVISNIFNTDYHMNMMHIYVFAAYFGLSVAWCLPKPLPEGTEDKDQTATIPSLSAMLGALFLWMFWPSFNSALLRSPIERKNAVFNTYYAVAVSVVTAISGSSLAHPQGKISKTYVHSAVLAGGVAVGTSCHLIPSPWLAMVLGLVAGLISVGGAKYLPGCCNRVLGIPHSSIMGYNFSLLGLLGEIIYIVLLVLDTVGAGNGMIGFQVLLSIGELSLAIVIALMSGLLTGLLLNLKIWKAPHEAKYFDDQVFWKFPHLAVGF

Ratio WT/IgG (KD) [1]: 44.9 | Ag binding MFI (Arbitrary Unit) [2]: 44.7 | ADCC EC50 (ng/ml), lysis of RhD+ red cells (Fcγ receptors): 75.9 ng/mL | ADCC Max. Lysis (%) (Fcγ receptors): 6% | Ratio/IgG-WT [3]: 7.48 | Ratio/IgG-WT [4]: 0.12 | Ratio/IgG-WT [5]: 0.1 | Ratio/IgG-WT [6]: 0.17 | Ratio/IgG-WT [7]: 0.27 | Ratio/IgG-WT [8]: 0.1 | Ratio/IgG-WT [9]: 0.17 | Kd [10]: 4.23 nM | ratio to the IgG1 without 294Del [11]: 1 | ratio to the IgG1 without 294Del [12]: 0.05 | ratio to the IgG1 without 294Del [13]: 0.1 | ratio to the IgG1 without 294Del [14]: 0.17 | ratio to the IgG1 without 294Del [15]: 0.17 | ratio to the IgG1 without 294Del [16]: 0.11 | ratio to the IgG1 without 294Del [17]: 0.16
Substance: R593 anti-RhD+ IgG1 variant 256N/294Del/378V/383N/434Y (antibody)

Ratio WT/IgG (KD) [1]: 9.41 | Ag binding MFI (Arbitrary Unit) [2]: 47.9 | ratio to the IgG1 without 294Del [18]: 0.91 | ratio to the IgG1 without 294Del [19]: 0.12 | ratio to the IgG1 without 294Del [20]: 0.07 | ratio to the IgG1 without 294Del [21]: 0.11 | ratio to the IgG1 without 294Del [22]: 0.13 | ratio to the IgG1 without 294Del [23]: 0.07 | ratio to the IgG1 without 294Del [24]: 0.11 | ADCC EC50 (ng/ml), lysis of RhD+ red cells (Fcγ receptors): 75.9 ng/mL | ADCC Max. Lysis (%) (Fcγ receptors): 4% | Ratio/IgG-WT [3]: 7.19 | Ratio/IgG-WT [4]: 0.13 | Ratio/IgG-WT [5]: 0.07 | Ratio/IgG-WT [6]: 0.1 | Ratio/IgG-WT [7]: 0.18 | Ratio/IgG-WT [8]: 0.07 | Ratio/IgG-WT [9]: 0.12 | Kd [10]: 20.2 nM
Substance: R593 anti-RhD+ IgG1 variant 259I/294Del/315D/434Y (antibody)

Ratio/IgG-WT [25]: 2.87 | Ratio/IgG-WT [26]: 0.34 | Ratio/IgG-WT [27]: 0.02 | Ratio/IgG-WT [28]: 0.01 | Ratio/IgG-WT [29]: 0.13 | Ratio/IgG-WT [30]: 0.01 | Ratio WT/IgG (KD) [31]: 3.54 | ratio to the IgG1 without 294Del [32]: 0.66 | ratio to the IgG1 without 294Del [33]: 0.41 | ratio to the IgG1 without 294Del [34]: 0.02 | ratio to the IgG1 without 294Del [35]: 0.01 | ratio to the IgG1 without 294Del [36]: 0.1 | ratio to the IgG1 without 294Del [37]: 0.01 | Kd [10]: 28 nM | ratio to the IgG1 without 294Del [38]: 0.86 | ratio to the IgG1 without 294Del [39]: 0.09 | ratio to the IgG1 without 294Del [40]: 0.05 | ratio to the IgG1 without 294Del [41]: 0.08 | ratio to the IgG1 without 294Del [42]: 0.27 | ratio to the IgG1 without 294Del [43]: 0.07 | ratio to the IgG1 without 294Del [44]: 0.06 | Ag binding MFI (Arbitrary Unit) [45]: 96 | Ratio/IgG-WT [46]: 5.97 | Ratio/IgG-WT [47]: 0.1 | Ratio/IgG-WT [48]: 0.05 | Ratio/IgG-WT [49]: 0.08 | Ratio/IgG-WT [50]: 0.41 | Ratio/IgG-WT [51]: 0.08 | Ratio/IgG-WT [52]: 0.07
Substance: R603 anti-CD20 IgG1 variant 259I/294Del/315D/434Y (antibody)
